Target: T1, Acetyl-Prolyl-Arginyl-Asparaginyl-Lysyl-aminoacetamide coumarin (Ac-PRNK-ACC)
T1 chain: PRNK

B1: bovine factor Xa protease (Promega) (protein)
chain: ANSFLEEVKQGNLERECLEEACSLEEAREVFEDAEQTDEFWSKYKDGDQCEGHPCLNQGHCKDGIGDYTCTCAEGFEGKNCEFSTREICSLDNGGCDQFCREERSEVRCSCAHGYVLGDDSKSCVSTERFPCGKFTQGRSRRWAIHTSEDALDASELEHYDPADLSPTESSLDLLGLNRTEPSAGEDGSQVVRIVGGRDCAEGECPWQALLVNEENEGFCGGTILNEFYVLTAAHCLHQAKRFTVRVGDRNTEQEEGNEMAHEVEMTVKHSRFVKETYDFDIAVLRLKTPIRFRRNVAPACLPEKDWAEATLMTQKTGIVSGFGRTHEKGRLSSTLKMLEVPYVDRSTCKLSSSFTITPNMFCAGYDTQPEDACQGDSGGPHVTRFKDTYFVTGIVSWGEGCARKGKFGVYTKVSNFLKWIDKIMKARAGAAGSRGHSEAPATWTVPPPLPL
cleavage of the fluorogenic substrate (fluorescence, excitation 355 nm, emission 460 nm): Ac-PRNK-ACC (SEQ. ID. NO: 12) is a specific substrate for tryptase in relation to other blood borne serine proteases

— US20020197661
